Laboratory results: publication PMC6838055, “Effective genome editing and identification of a regiospecific gallic acid 4-O-glycosyltransferase in pomegranate (Punica granatum L.)” (Horticulture Research, 2019)

Substrate: O=C(O)c1cc(O)c(O)c(O)c1
Assay: HPLC product assay, steady-state kinetics
Type: biochemical, Punica granatum
Details: UDP-glucose co-substrate (0.6 mM in standard assay), 50 mM MES pH 5.5, 3 mM 2-mercaptoethanol, 30 °C, gallic acid 30-500 μM

B1: PgUGT72BD1 (Punica granatum) (protein)
chain: MAQVSTKPHVALFASPGIGHLIPVLQLGERFVSRHNFVVTVFVVVTDAATAESQLKQQSSYKNLLNVVLLPPVDLTSLTNKPLAILSQLVLIVRQSLPDLRSAIASMKSRPTALIVDLFGTEAFAIADEFHMLKYEFFTTNAWFLALTLYAPHVDREHEDDHILRHMPLHIPGCASILYEDTVDVYTDRNDKLLHDDYVRIGRRLAEADGILINTWESLEPKTLQALRDPKAFGRFSQVRILPIGPLVSGFQSFGSSQPKDDILQWLDDQPTESVLYVSFGSGGTLSADQLTELAWGLEQSQHRFIWVVRPPQENSACGAYFEQAKRADGTPEYLPDGFVTRTQKLGLVVPMWAPQREILAHPSIGGFLSHCGWNSTLESLINGVPLIAWPLYAEQTMNATMLTDQLGIAARSRELMPNGVLGRHEIEKMVRTVMNKEDAKGETIRARSQDLKRTALLAVAEGGSSYAALSQVAQECKIGLVGLKQRARGA
notes: codon-optimized ORF in pET28a, His-tagged, E. coli BL21(DE3), Ni-NTA purified; no signal peptide detected
**Q.** How did the Km turn out when B1 was run?
**A.** Its Km is 190 ± 70 µM.

**Q.** What about the kcat of the same protein?
**A.** Its kcat is “(2.83 ± 0.5) × 10^−3 s^−1”.
